Results as given in article PMC11636682 (Science Advances, 2024).
No end group written: not given here. *: point of attachment. Farnesyl = CC(C)=CCC/C(C)=C/CC/C(C)=C/C*

Biological target: T1, phosphodiesterase-δ (PDEδ) (UniProt O43924 1-150)
T1 construct: also called His6-MBP-tev-PDEδ; source: E. coli, purified
Assay: ITC; 1 mM KRAS4a(167–186)HVR-FMe peptide in the syringe, 200 μM PDEδ in the cell; 25°C; 20 mM Hepes pH 7.3, 150 mM NaCl, 5 mM MgCl2, 1 mM TCEP; single binding site model
Details: both partners purified

T1 sequence (O43924 whole entry, stated change not applied): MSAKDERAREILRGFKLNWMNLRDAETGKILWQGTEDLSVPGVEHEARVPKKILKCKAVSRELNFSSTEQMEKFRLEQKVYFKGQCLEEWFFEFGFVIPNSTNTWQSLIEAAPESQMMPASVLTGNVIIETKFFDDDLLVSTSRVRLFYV

B1: KRAS4a(167–186)HVR-FMe peptide (peptide, UniProt P01116-1 167-186, looked up)
peptide: RLKKISKEEKTPGCVKIKKC(Farnesyl)-OMe
notes: KRAS splice variant KRAS4a, hypervariable region, residues 167 to 186 (20-mer ending at the prenylated cysteine); also called prenylated 20-residue KRAS4a HVR peptide; KRAS4a-HVR peptide; source: synthetic peptide, bought: AnaSpec Peptides Inc
Kd: 27 µM
